Experimental data: patent US20150086555A1

B1: TCN-536 (5095_N01) (antibody, V domains shown)
VH: QVQLQQWGAGLLKPSETLSLTCAVYGGSFSVSGYYWSWIRQPPGRGLEWIGEISHGGSTNYNPSLKSRVTISVDTTKNQFSLRLSSVTAADTAVYYCARGTDPDTEVYCRVGNCAAFDYWGQGSLVTVSS
VL: EIILAQSPGTLSLSPGERATLSCRASQFVSTRSLAWYQQRPGQAPRLLIYGASSRATGIPDRFSGSGSGTDFTLTISRLEPEDFAVYYCQHYGYSPRYAFGQGSKVEIK
B2: TCN-540 (5060_F05) (antibody, V domains shown)
VH: QVQLVQSGGGVVQPGRSLRLSCAASGFTFSSYAMHWVRQAPGKGLEWVAIISYDGNDQYYTDSVKGRFTISRDSSKVYLQMHRLRPEDTAVYYCAKEFETSGYFHGSFDYWGQGILVTVSS
VL: QSALTQPASVSGSPGQSITISCTGTSSDVGGYNYVSWYQQHPGKAPKLLIYEVTNWPSGVSNRFSGSKSGNTASLTISGLQAEDEADYYCSSYAGSSTWVFGGGTRVTVL
B3: TCN-527 (5086_C06) (antibody, V domains shown)
VH: QVQLQESGPGLVKPSETLSLNCAVSGGSISNYYWSWIRQPPGKGLEWIGYISYNGRPKYNPSLTSRVTISVDTSKDQFSLELRSVTAADTALYYCARETRFGELLSPYDAFEIWGQGTMVTVSS
VL: DIQMTQSPSSLSASVGDRVTMTCRASQNIRSYLNWYQQRPGTAPKLLIYAASTLHSGVPSRFSGGGSGTDFTLTINNLQPEDFASYYCQQSYDNPQTFGQGTKVEIK
B4: TCN-528 (5087_P17) (antibody, V domains shown)
VH: QVQLVQSGSEVKKPGASVKVSCKASGYTFTNYDINWIRQAPGQGLEWMGWINPNSGTTGSAQRFQGRVTITVDTSITTVYMELSSLRSDDTAIYYCARGRELLRLQHFLTDSQSERRDCFDPWGQGTLVTVSS
VL: DIQMTQSPSSLSASVGDRVTITCRANQDIGIYLNWYQQNPGKVPKLLLHGASSLQGGVPSRFSASGSGTDFTLTIHSLQPEDLATYYCQQSRRLPYTFGQGTRVELK

These binders were tested against recombinant soluble homotrimeric HA of A/Vietnam/1203/04 (H5N1) (Influenza A virus A/VietNam/1203/2004(H5N1)) (assay: HA microarray, BCC supernatant). Details: remark: other sources report otherwise.

| Binder | Trimeric HA Binding: RLU [RLU] |
| --- | --- |
| B1 | 146 |
| B2 | 63 |
| B3 | 21300 |
| B4 | 45600 |

These binders were tested against recombinant soluble homotrimeric HA of A/northern shoveler/California/HKWF115/07 (H6) (Influenza A virus A/northern shoveler/California/HKWF115/2007(H6N1)) (assay: HA microarray, BCC supernatant). Details: remark: other sources report otherwise.

| Binder | Trimeric HA Binding: RLU [RLU] |
| --- | --- |
| B1 | 2210 |
| B2 | 131 |
| B3 | 30300 |
| B4 | 46800 |

The binders below were run against recombinant soluble homotrimeric HA of A/California/4/09 (H1N1) (Influenza A virus A/California/04/2009(H1N1)) (assay: HA microarray, BCC supernatant). Details: remark: other sources report otherwise.

| Binder | Trimeric HA Binding: RLU [RLU] |
| --- | --- |
| B1 | 151 |
| B2 | 57 |
| B3 | 28000 |
| B4 | 48800 |

The binders below were run against recombinant soluble homotrimeric HA of A/Anhui/1/05 (H5N1) (Influenza A virus A/Anhui/1/2005(H5N1)) (assay: HA microarray, BCC supernatant). Details: remark: other sources report otherwise.

| Binder | Trimeric HA Binding: RLU [RLU] |
| --- | --- |
| B1 | 543 |
| B2 | 25 |
| B3 | 21400 |
| B4 | 49800 |

What follows are binders tested against recombinant soluble homotrimeric HA of A/chicken/Vietnam/NCVD-016/08 (H5N1) (Influenza A virus A/chicken/Vietnam/NCVD-016/2008(H5N1)) (assay: HA microarray, BCC supernatant). Details: remark: other sources report otherwise.

| Binder | Trimeric HA Binding: RLU [RLU] |
| --- | --- |
| B1 | 287 |
| B2 | 70 |
| B3 | 27000 |
| B4 | 38200 |

Each binder was assayed against recombinant soluble homotrimeric HA of A/Solomon Islands/3/06 (H1N1) (Influenza A virus A/Solomon Islands/3/2006(H1N1)) (assay: HA microarray, BCC supernatant). Details: remark: other sources report otherwise.

| Binder | Trimeric HA Binding: RLU [RLU] |
| --- | --- |
| B2 | 64 |
| B3 | 16500 |
| B4 | 44800 |

The binders below were run against recombinant soluble homotrimeric HA of A/Netherlands/219/03 (H7N7) (Influenza A virus A/Netherlands/219/03(H7N7)) (assay: HA microarray, BCC supernatant). Details: remark: other sources report otherwise.

| Binder | Trimeric HA Binding: RLU [RLU] |
| --- | --- |
| B1 | 976 |
| B2 | 381 |
| B3 | 8890 |
| B4 | 49300 |

Each binder was assayed against recombinant soluble homotrimeric HA of A/Japan/305/57 (H2N2) (Influenza A virus A/Japan/305/1957(H2N2)) (assay: HA microarray, BCC supernatant). Details: remark: other sources report otherwise.

| Binder | Trimeric HA Binding: RLU [RLU] |
| --- | --- |
| B1 | 121 |
| B2 | 2970 |
| B3 | 19300 |
| B4 | 46400 |

The binders below were run against recombinant soluble homotrimeric HA of A/Indonesia/5/05 (H5N1) (Influenza A virus A/Indonesia/5/2005(H5N1)) (assay: HA microarray, BCC supernatant). Details: remark: other sources report otherwise.

| Binder | Trimeric HA Binding: RLU [RLU] |
| --- | --- |
| B2 | 31 |
| B3 | 23800 |
| B4 | 42800 |

The binders below were run against recombinant soluble homotrimeric HA of A/duck/Yangzhou/02/05 (H8N4) (Influenza A virus A/duck/Yangzhou/02/2005(H8N4)) (assay: HA microarray, BCC supernatant). Details: remark: other sources report otherwise.

| Binder | Trimeric HA Binding: RLU [RLU] |
| --- | --- |
| B1 | 436 |
| B2 | 117 |
| B3 | 28800 |
| B4 | 38400 |

Each binder was assayed against recombinant soluble homotrimeric HA of A/Wisconsin/67/05 (H3N2) (Influenza A virus A/Wisconsin/67/2005(H3N2)) (assay: HA microarray, BCC supernatant). Details: remark: other sources report otherwise.

| Binder | Trimeric HA Binding: RLU [RLU] |
| --- | --- |
| B1 | 35000 |
| B2 | 728 |
| B3 | 5720 |
| B4 | 48800 |

These binders were tested against recombinant soluble homotrimeric HA of A/swine/Ontario/01911-2/99 (H4N6) (Influenza A virus A/Swine/Ontario/01911-2/99 (H4N6)) (assay: HA microarray, BCC supernatant). Details: remark: other sources report otherwise.

| Binder | Trimeric HA Binding: RLU [RLU] |
| --- | --- |
| B1 | 79 |
| B2 | 178 |
| B3 | 7690 |
| B4 | 47500 |

Each binder was assayed against recombinant soluble homotrimeric HA of A/Hong Kong/2108/03 (H9N2) (Influenza A virus A/HK/2108/2003(H9N2)) (assay: HA microarray, BCC supernatant). Details: remark: other sources report otherwise.

| Binder | Trimeric HA Binding: RLU [RLU] |
| --- | --- |
| B1 | 1570 |
| B2 | 22 |
| B3 | 16000 |
| B4 | 42000 |

What follows are binders tested against recombinant homotrimeric HA A/Vietnam/1203/04 H5N1 (Influenza A virus A/VietNam/1203/2004(H5N1)) (assay: protein microarray, purified IgG, trimeric HA). Details: remark: other sources report otherwise.

| Binder | Trimeric HA Binding: RLU [RLU] |
| --- | --- |
| B1 | 749 |
| B2 | 830 |
| B3 | 19800 |
| B4 | 24600 |

What follows are binders tested against recombinant homotrimeric HA A/Japan/305/57 H2N2 (Influenza A virus A/Japan/305/1957(H2N2)) (assay: protein microarray, purified IgG, trimeric HA). Details: remark: other sources report otherwise.

| Binder | Trimeric HA Binding: RLU [RLU] |
| --- | --- |
| B1 | 771 |
| B2 | 29000 |
| B3 | 27000 |
| B4 | 30100 |

What follows are binders tested against recombinant homotrimeric HA A/Egypt/3300-NAMRU3/08 H5N1 (Influenza A virus A/Egypt/3300-NAMRU3/2008(H5N1)) (assay: protein microarray, purified IgG, trimeric HA). Details: remark: other sources report otherwise.

| Binder | Trimeric HA Binding: RLU [RLU] |
| --- | --- |
| B1 | 4710 |
| B2 | 860 |
| B3 | 23900 |
| B4 | 25600 |

These binders were tested against recombinant homotrimeric HA A/Hong Kong/2108/03 H9N2 (Influenza A virus A/HK/2108/2003(H9N2)) (assay: protein microarray, purified IgG, trimeric HA). Details: remark: other sources report otherwise.

| Binder | Trimeric HA Binding: RLU [RLU] |
| --- | --- |
| B2 | 164 |
| B3 | 18700 |
| B4 | 23600 |

The binders below were run against recombinant homotrimeric HA A/Netherlands/219/03 H7N7 (Influenza A virus A/Netherlands/219/03(H7N7)) (assay: protein microarray, purified IgG, trimeric HA). Details: remark: other sources report otherwise.

| Binder | Trimeric HA Binding: RLU [RLU] |
| --- | --- |
| B1 | 186 |
| B2 | 191 |
| B3 | 15200 |
| B4 | 16700 |

These binders were tested against recombinant homotrimeric HA A/Hong Kong/156/97 H5N1 (Influenza A virus A/Hong Kong/156/97 (H5N1)) (assay: protein microarray, purified IgG, trimeric HA). Details: remark: other sources report otherwise.

| Binder | Trimeric HA Binding: RLU [RLU] |
| --- | --- |
| B1 | 732 |
| B2 | 465 |
| B3 | 28600 |
| B4 | 25700 |

These binders were tested against recombinant homotrimeric HA A/northern shoveler/California/HKWF115/07 H6N4 (Influenza A virus A/northern shoveler/California/HKWF115/2007(H6N1)) (assay: protein microarray, purified IgG, trimeric HA). Details: remark: other sources report otherwise.

| Binder | Trimeric HA Binding: RLU [RLU] |
| --- | --- |
| B1 | 114 |
| B2 | 76 |
| B3 | 13200 |
| B4 | 18000 |

Each binder was assayed against recombinant homotrimeric HA A/chicken/Vietnam/NCVD-016/08 H5N1 (Influenza A virus A/chicken/Vietnam/NCVD-016/2008(H5N1)) (assay: protein microarray, purified IgG, trimeric HA). Details: remark: other sources report otherwise.

| Binder | Trimeric HA Binding: RLU [RLU] |
| --- | --- |
| B1 | 419 |
| B2 | 338 |
| B3 | 25200 |
| B4 | 22700 |

Each binder was assayed against recombinant homotrimeric HA A/Solomon Islands/3/06 H1N1 (Influenza A virus A/Solomon Islands/3/2006(H1N1)) (assay: protein microarray, purified IgG, trimeric HA). Details: remark: other sources report otherwise.

| Binder | Trimeric HA Binding: RLU [RLU] |
| --- | --- |
| B2 | 9360 |
| B3 | 22900 |
| B4 | 25400 |

What follows are binders tested against recombinant homotrimeric HA A/Wisconsin/67/05 H3N2 (Influenza A virus A/Wisconsin/67/2005(H3N2)) (assay: protein microarray, purified IgG, trimeric HA). Details: remark: other sources report otherwise.

| Binder | Trimeric HA Binding: RLU [RLU] |
| --- | --- |
| B1 | 24700 |
| B2 | 6900 |
| B3 | 600 |
| B4 | 1060 |

These binders were tested against recombinant homotrimeric HA A/California/4/09 H1N1 (Influenza A virus A/California/04/2009(H1N1)) (assay: protein microarray, purified IgG, trimeric HA). Details: remark: other sources report otherwise.

| Binder | Trimeric HA Binding: RLU [RLU] |
| --- | --- |
| B1 | 298 |
| B2 | 266 |
| B3 | 18600 |
| B4 | 6810 |

Each binder was assayed against recombinant homotrimeric HA A/South Carolina/1/18 H1N1 (Influenza A virus A/South Carolina/1/18 (H1N1)) (assay: protein microarray, purified IgG, trimeric HA). Details: remark: other sources report otherwise.

| Binder | Trimeric HA Binding: RLU [RLU] |
| --- | --- |
| B1 | 160 |
| B2 | 139 |
| B3 | 314 |
| B4 | 16900 |

The binders below were run against recombinant homotrimeric HA A/Indonesia/5/05 H5N1 (Influenza A virus A/Indonesia/5/2005(H5N1)) (assay: protein microarray, purified IgG, trimeric HA). Details: remark: other sources report otherwise.

| Binder | Trimeric HA Binding: RLU [RLU] |
| --- | --- |
| B2 | 139 |
| B3 | 29600 |
| B4 | 27000 |

Each binder was assayed against recombinant homotrimeric HA A/Anhui/1/05 H5N1 (Influenza A virus A/Anhui/1/2005(H5N1)) (assay: protein microarray, purified IgG, trimeric HA). Details: remark: other sources report otherwise.

| Binder | Trimeric HA Binding: RLU [RLU] |
| --- | --- |
| B1 | 8860 |
| B2 | 769 |
| B3 | 24700 |
| B4 | 28800 |
